Results from US20130315910A1 (Xencor, published 2013).
Changes are numbered by the printed parent chain. Names and notes keep the numbering of the source.

T1: human FcγRIIb receptor protein (R&D Systems) (human, UniProt P31994 46-217)
T1 construct: Bought protein injected over captured antibody in Biacore; also called CD32b
T1 sequence (looked up): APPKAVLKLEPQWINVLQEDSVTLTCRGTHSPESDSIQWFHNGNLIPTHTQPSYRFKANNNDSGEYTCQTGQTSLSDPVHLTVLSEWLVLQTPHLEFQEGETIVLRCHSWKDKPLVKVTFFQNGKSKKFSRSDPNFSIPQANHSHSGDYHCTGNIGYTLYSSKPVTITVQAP

T2: human FcγRIIa (131R), His- and GST-tagged (human, UniProt P12318 34-217)
T2 construct: Expressed in HEK293T cells, purified by nickel chromatography; also called R131 FcγRIIa; not shown: 6xHis and GST tags of the pTT5 vector
T2 sequence (looked up): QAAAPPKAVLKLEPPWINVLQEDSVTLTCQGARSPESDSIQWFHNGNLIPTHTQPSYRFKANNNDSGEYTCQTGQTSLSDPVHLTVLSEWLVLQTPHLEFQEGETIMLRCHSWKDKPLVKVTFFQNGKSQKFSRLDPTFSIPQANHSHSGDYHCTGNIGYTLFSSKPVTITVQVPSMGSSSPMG

T3: human FcγRIIa (131H), His- and GST-tagged (human, UniProt P12318 34-217)
T3 construct: also called H131 FcγRIIa; HIIa; not shown: 6xHis and GST tags of the pTT5 vector
T3 sequence (looked up): T2 sequence (looked up) with R134H

T4: mFcγRIIb (Mus musculus, UniProt P08101)
T4 construct: extracellular region, C-terminal His- and GST-tag; also called mouse FcγRII
T4 sequence (receptor extracellular region, looked up): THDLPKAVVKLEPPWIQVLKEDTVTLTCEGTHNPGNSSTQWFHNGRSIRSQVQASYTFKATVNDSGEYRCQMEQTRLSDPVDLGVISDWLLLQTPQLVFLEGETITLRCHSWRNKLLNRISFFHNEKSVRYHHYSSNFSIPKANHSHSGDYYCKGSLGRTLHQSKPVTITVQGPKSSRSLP

T5: mFcγRIV
T5 construct: also called mouse FcγRIV; not shown: C-terminal His and GST tags (named only on our card)
T5 chain: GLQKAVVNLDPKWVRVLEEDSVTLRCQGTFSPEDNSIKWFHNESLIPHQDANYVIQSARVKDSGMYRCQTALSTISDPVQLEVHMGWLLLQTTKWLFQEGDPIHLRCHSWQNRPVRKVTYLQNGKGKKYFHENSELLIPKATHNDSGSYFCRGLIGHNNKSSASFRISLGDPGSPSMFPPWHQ

T6: cynoFcγRIIb (Macaca fascicularis, UniProt A0A140HDP4)
T6 construct: extracellular region, C-terminal His- and GST-tag; also called cynomolgus monkey FcγRIIb
T6 sequence (receptor extracellular region): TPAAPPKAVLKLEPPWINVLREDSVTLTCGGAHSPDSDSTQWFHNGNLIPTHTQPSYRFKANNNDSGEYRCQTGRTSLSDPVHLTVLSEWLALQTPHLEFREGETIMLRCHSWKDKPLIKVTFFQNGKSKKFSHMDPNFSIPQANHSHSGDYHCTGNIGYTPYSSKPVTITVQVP

B1: L234D/S267E (antibody, human IgG1, kappa)
heavy: not shown
light: DIVMTQSPATLSLSPGERATLSCRSSKSLQNVNGNTYLYWFQQKPGQSPQLLIYRMSNLNSGVPDRFSGSGSGTEFTLTISSLEPEDFAVYYCMQHLEYPITFGAGTKLEIKRTVAAPSVFIFPPSDEQLKSGTASVVCLLNNFYPREAKVQWKVDNALQSGNSQESVTEQDSKDSTYSLSSTLTLSKADYEKHKVYACEVTHQGLSSPVTKSFNRGEC
notes: HuAM4G7 anti-CD19 IgG1 (m1) with these Fc substitutions, EU index; copies: 2 + 2
B2: G236V (antibody, human IgG1, kappa)
heavy: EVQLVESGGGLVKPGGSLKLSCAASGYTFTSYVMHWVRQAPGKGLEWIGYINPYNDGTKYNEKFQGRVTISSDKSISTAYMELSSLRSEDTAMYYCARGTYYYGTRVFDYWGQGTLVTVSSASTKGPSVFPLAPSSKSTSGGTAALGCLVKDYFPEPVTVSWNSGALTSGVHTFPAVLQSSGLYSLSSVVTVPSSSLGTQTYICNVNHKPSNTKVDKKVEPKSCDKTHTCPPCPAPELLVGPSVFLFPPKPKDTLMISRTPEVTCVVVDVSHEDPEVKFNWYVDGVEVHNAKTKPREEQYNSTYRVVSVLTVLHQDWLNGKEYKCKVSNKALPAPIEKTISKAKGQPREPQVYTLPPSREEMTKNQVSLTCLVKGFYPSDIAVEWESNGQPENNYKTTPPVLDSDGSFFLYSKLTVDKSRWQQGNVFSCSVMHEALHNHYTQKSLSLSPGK
light: B1 light
notes: HuAM4G7 anti-CD19 IgG1 (m1) with this Fc substitution, EU index; copies: 2 + 2
B3: S267E/L328H (antibody, human IgG1, kappa)
heavy: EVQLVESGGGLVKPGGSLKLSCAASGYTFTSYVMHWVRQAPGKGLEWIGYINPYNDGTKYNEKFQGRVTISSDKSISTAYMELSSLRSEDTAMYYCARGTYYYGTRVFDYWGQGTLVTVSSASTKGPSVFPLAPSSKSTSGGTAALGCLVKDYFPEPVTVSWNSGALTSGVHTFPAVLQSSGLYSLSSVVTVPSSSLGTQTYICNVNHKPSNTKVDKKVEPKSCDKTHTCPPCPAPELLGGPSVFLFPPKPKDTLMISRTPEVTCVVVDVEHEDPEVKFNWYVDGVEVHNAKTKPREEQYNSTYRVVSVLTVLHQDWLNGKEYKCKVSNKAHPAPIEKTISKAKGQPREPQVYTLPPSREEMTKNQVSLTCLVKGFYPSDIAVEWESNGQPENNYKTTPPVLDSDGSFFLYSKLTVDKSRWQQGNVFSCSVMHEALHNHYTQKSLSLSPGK
light: B1 light
notes: as for B1
B4: S298D (antibody, human IgG1, kappa)
heavy: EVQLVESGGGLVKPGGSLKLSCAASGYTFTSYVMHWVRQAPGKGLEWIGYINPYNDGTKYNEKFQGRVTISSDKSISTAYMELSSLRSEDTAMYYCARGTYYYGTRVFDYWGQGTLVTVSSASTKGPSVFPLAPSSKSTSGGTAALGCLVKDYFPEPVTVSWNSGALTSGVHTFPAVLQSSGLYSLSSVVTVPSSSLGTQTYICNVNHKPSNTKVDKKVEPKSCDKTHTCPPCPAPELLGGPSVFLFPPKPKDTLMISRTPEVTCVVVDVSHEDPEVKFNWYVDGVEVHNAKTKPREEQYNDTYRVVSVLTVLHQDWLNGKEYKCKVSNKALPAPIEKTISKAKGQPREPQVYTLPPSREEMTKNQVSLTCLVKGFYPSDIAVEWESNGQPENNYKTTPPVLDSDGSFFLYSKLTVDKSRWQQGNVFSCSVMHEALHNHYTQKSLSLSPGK
light: B1 light
notes: as for B2
B5: L234G (antibody, human IgG1, kappa)
heavy: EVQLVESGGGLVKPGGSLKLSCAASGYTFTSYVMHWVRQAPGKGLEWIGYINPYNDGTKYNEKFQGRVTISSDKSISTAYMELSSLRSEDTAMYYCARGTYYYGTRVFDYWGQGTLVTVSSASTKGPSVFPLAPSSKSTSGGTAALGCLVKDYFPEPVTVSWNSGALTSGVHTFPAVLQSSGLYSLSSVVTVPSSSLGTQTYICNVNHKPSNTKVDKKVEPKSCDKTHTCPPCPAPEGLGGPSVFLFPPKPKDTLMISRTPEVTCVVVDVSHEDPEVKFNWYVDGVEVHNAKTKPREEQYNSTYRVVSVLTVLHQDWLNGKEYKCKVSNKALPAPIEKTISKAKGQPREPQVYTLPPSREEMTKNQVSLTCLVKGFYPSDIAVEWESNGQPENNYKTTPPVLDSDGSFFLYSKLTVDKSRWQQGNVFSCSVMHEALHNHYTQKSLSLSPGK
light: B1 light
notes: as for B2
B6: L235R (antibody, human IgG1, kappa)
heavy: not shown
light: B1 light
notes: as for B2
B7: G236F (antibody, human IgG1, kappa)
heavy: not shown
light: B1 light
notes: as for B2
B8: L235N (antibody, human IgG1, kappa)
heavy: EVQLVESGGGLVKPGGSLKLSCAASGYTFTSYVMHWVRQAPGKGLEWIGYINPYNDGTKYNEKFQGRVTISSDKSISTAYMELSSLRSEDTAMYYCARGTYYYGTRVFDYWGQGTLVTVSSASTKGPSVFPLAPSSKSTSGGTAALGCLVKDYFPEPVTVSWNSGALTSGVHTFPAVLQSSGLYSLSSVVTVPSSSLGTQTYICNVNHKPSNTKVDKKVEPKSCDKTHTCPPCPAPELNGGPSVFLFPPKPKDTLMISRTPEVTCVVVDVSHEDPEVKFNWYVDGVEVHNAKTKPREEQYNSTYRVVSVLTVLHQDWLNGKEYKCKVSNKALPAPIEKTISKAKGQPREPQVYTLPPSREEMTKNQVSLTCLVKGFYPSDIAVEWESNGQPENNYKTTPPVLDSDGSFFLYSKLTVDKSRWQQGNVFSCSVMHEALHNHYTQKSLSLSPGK
light: B1 light
notes: as for B2
B9: S298E (antibody, human IgG1, kappa)
heavy: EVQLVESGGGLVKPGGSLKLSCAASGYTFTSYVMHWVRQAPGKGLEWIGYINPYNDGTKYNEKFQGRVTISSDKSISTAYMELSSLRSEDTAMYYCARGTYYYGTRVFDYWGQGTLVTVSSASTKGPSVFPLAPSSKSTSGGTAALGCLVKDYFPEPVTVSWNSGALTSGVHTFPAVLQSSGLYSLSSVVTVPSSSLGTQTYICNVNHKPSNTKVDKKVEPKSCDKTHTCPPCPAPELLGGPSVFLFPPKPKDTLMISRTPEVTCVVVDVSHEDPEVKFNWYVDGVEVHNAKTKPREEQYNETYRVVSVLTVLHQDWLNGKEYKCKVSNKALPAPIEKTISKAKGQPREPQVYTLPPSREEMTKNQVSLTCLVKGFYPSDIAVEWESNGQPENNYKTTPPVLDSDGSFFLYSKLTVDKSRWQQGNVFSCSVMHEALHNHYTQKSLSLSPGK
light: B1 light
notes: as for B2
B10: G236E/S267E (antibody, human IgG1, kappa)
heavy: not shown
light: B1 light
notes: as for B1
B11: S267E/N325L (antibody, human IgG1, kappa)
heavy: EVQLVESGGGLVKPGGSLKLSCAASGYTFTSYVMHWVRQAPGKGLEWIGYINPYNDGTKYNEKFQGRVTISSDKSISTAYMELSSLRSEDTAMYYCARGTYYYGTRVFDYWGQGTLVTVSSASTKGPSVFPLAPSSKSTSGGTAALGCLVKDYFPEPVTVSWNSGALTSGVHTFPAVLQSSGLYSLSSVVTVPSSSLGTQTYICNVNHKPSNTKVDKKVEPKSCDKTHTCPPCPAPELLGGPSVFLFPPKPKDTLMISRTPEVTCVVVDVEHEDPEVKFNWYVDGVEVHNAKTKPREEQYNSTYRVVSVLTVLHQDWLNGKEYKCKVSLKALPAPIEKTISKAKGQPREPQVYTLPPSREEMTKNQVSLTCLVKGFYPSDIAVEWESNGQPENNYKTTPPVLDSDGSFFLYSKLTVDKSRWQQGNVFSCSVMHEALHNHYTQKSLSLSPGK
light: B1 light
notes: as for B1
B12: L234Q (antibody, human IgG1, kappa)
heavy: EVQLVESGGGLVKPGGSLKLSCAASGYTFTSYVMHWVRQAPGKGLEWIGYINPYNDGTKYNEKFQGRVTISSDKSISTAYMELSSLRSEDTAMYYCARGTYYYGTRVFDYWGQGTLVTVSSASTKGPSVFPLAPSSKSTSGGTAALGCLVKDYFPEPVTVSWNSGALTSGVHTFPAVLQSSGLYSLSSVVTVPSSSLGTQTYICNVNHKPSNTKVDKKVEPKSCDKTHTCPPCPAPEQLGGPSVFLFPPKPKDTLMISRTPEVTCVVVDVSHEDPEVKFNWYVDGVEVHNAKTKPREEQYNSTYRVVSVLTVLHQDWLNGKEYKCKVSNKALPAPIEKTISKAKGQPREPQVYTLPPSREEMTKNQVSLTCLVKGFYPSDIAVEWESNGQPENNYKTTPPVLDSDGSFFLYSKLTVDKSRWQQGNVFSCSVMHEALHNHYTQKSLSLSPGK
light: B1 light
notes: as for B2
B13: L235A (antibody, human IgG1, kappa)
heavy: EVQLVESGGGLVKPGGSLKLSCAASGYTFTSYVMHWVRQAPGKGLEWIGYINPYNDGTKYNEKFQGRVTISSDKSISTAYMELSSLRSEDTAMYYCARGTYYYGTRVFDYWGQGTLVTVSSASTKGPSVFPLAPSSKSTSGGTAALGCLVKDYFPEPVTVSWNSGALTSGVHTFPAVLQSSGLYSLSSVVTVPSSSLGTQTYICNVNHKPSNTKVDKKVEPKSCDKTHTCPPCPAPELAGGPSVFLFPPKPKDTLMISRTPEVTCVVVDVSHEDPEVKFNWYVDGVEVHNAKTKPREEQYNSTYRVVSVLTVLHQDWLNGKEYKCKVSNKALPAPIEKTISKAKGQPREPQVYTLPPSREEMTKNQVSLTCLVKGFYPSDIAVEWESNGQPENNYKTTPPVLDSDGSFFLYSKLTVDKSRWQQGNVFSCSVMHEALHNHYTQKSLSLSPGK
light: B1 light
notes: as for B2

molecular target: T1, human FcγRIIb receptor protein (R&D …); test: SPR
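Wherever Fold vs WT IgG1 (off-rate) is given: fold improvement over WT IgG1 so higher means slower dissociation than WT.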

Binder | Fold vs WT IgG1 [fold] | Kd [nM] | binding result
B1 | 21.7 | 67.8 | –
B2 | 0.0147 | 100000 | –
B3 | 5.17 | 284 | –
B4 | 0.797 | 1840 | –
B5 | 0.147 | 10000 | –
B6 | 5.58 | 263 | –
B7 | 0.0147 | 100000 | –
B8 | 0.147 | 10000 | –
B9 | – | – | no binding
B10 | 11.4 | 129 | –
B11 | 31.5 | 46.6 | –
B12 | 0.147 | 10000 | –
B13 | 0.351 | 4180 | –

molecular target: T7, human FcγRI receptor protein (R&D Systems) (human, UniProt P12314 16-288); test: SPR
T7 construct: also called soluble FcγRI; solFcγRI
T7 sequence (P12314 16-288 limits assumed): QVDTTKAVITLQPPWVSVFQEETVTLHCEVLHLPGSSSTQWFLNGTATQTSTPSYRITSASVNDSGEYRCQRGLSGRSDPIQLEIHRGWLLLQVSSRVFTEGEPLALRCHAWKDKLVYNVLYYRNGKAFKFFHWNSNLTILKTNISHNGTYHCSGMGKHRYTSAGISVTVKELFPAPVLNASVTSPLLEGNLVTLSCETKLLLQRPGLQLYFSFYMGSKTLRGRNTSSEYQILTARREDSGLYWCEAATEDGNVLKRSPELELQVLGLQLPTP

Binder | Fold vs WT IgG1 [fold] | Kd [nM]
B1 | 0.0286 | 11.5
B13 | 0.0179 | 18.4

molecular target: T2, human FcγRIIa (131R), His- and …; test: SPR

Binder | Fold vs WT IgG1 [fold] | Kd [nM] | binding result
B1 | 12.7 | 67.7 | –
B2 | 0.106 | 8080 | –
B3 | 4.64 | 185 | –
B4 | 1.45 | 592 | –
B5 | 0.0859 | 10000 | –
B6 | 1.02 | 838 | –
B7 | 0.00859 | 100000 | –
B8 | 0.0356 | 24100 | –
B9 | – | – | no binding
B10 | 36.5 | 23.5 | –
B11 | 41.5 | 20.7 | –
B12 | 0.0372 | 23100 | –
B13 | 0.166 | 5180 | –

molecular target: T3, human FcγRIIa (131H), His- and …; test: SPR

Binder | Fold vs WT IgG1 [fold] | Kd [nM]
B13 | 0.0486 | 13300

molecular target: T8, human FcγRIIIa (158V), His- and GST-tagged (human, UniProt P08637 17-208); test: SPR
T8 construct: also called V158 FcγRIIIa; VIIIa; not shown: 6xHis and GST tags of the pTT5 vector
T8 sequence (P08637 17-208 F176V): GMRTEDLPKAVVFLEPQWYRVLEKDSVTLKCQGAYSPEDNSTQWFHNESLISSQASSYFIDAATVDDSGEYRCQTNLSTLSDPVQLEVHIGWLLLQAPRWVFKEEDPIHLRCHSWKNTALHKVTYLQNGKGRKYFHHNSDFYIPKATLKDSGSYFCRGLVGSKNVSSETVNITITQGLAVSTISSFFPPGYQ

Binder | Fold vs WT IgG1 [fold] | Kd [nM]
B1 | 0.14 | 1370
B13 | 0.314 | 609

molecular target: T4, mFcγRIIb; test: SPR

Binder | Fold vs WT IgG1 (off-rate) [fold]
B1 | 1.04
B3 | 1.11

Molecular target: T5, mFcγRIV
Test: SPR

Binder | Fold vs WT IgG1 (off-rate) [fold]
B4 | 0.618
B6 | 0.347
B8 | 0.241
B9 | 0.136
B11 | 0.24
B13 | 0.496

molecular target: T6, cynoFcγRIIb; test: SPR

Binder | Fold vs WT IgG1 (off-rate) [fold]
B1 | 0.495
B2 | 0.703
B3 | 0.42

molecular target: T9, cynoFcγRIIIa (Macaca fascicularis, UniProt Q8SPW2); test: SPR
T9 construct: extracellular region, C-terminal His- and GST-tag; also called cynomolgus monkey FcγRIIIa
T9 sequence (Q8SPW2 17-208): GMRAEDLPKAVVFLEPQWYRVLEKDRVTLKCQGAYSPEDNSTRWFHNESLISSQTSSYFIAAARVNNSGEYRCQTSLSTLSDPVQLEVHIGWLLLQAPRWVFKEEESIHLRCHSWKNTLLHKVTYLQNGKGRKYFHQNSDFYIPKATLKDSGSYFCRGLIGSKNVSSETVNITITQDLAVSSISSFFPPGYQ

Binder | Fold vs WT IgG1 (off-rate) [fold]
B1 | 0.116
B4 | 0.309
B5 | 0.113
B7 | 0.138
B8 | 0.351
B9 | 0.046
B10 | 0.327
B12 | 0.379
B13 | 0.53

molecular target: T4, mFcγRIIb; test: SPR, off-rate
Procedure: (§1) Variants were screened for receptor affinity using Biacore™ technology, also referred to as Biacore herein, a surface plasmon resonance (SPR) based technology for studying biomolecular interactions in real time. SPR measurements were performed using a Biacore 3000 instrument (Biacore, Piscataway, N.J.). A protein A/G (Pierce Biotechnology) CM5 biosensor chip (Biacore) was generated using a standard primary amine coupling protocol. All measurements were performed using HBS-EP buffer (10 mM HEPES pH 7.4, 0.15 M NaCl, 3 mM EDTA, 0.005% vol/vol surfactant P20, Biacore). Antibodies at 20 nM or 50 nM in HBS-EP buffer were immobilized on the protein A/G surface and FcγRs were injected. After each cycle, the surface was regenerated by injecting glycine buffer (10 mM, pH 1.5). Data were processed by zeroing time and response before the injection of FcγR and by subtracting appropriate nonspecific signals (response of reference channel and injection of running buffer). Kinetic analyses were performed by global fitting of binding data with a 1:1 Langmuir binding model using BIAevaluation software (Biacore).
(§2) Variant antibodies were tested for their affinity to mouse or cynologous monkey FcγRs using Biacore SPR as described above. Specifically, antibodies were first immobilized on a protein A/G chip to high density, and then followed by injections of the extracellular domain of the mouse or cynologous monkey FcγR of interest. Both association and dissociation phases were tracked in real time using the Biacore technology.

Binder | binding result
B2 | no binding
B4 | no binding
B5 | no binding
B6 | no binding
B7 | no binding
B8 | no binding
B9 | no binding
B10 | no binding
B11 | no binding
B12 | no binding
B13 | no binding

Molecular target: T5, mFcγRIV
Test: SPR, off-rate
Procedure: as §1, §2

Binder | binding result
B1 | no binding
B2 | no binding
B3 | no binding
B5 | no binding
B7 | no binding
B10 | no binding
B12 | no binding

molecular target: T6, cynoFcγRIIb; test: SPR, off-rate
Procedure: as §1, §2

Binder | binding result
B4 | no binding
B5 | no binding
B6 | no binding
B7 | no binding
B8 | no binding
B9 | no binding
B10 | no binding
B11 | no binding
B12 | no binding
B13 | no binding

molecular target: T9, cynoFcγRIIIa; test: SPR, off-rate
Procedure: as §1, §2

Binder | binding result
B2 | no binding
B3 | no binding
B6 | no binding
B11 | no binding
